From publication PMC4927293 come the findings set out here.

The target of this assay is heat-aggregated GFP.

Bounds are passed on as bounds.

As for “Hsp104 D484K (from UniProt P31539 1-908) (enzyme)”, the apparent KM for aggregated GFP from initial rates of GFP disaggregation by Hsp104 D484K (0.06 uM, 10 mM ATP): fold gain of affinity with Ssa1 (2 uM) and Ydj1 (0.5 uM) was above 25 fold; the apparent KM for aggregated GFP from initial rates of GFP disaggregation by Hsp104 D484K (0.06 uM, 10 mM ATP): fold increase of the apparent KM with 1 mM ADP turned out to be 2 fold.
